Assay results published in US20090017017A1 (SYMPHOGEN A S, published 2009).
Residue numbers refer to the chain shown, from its start.

B1: RhD163.119A02 (Fab, V domains shown)
VH: QVQLQESGPGLVKPSETLSLTCTVSGGSISSYYWSWVRQPPGKGLEWIGYIYYSGSTNYNPSLKSRVTIALDTSKNQFSLKLRSVTAADTAVYFCTRDWRQYGSAIRGSRYYYGMDVWGQGTTVTVSS
VL: EIVLTQSPGTLSLSPGERATLSCRASQNPRRNFLAWYQQKPGQAPRLLIYAASTRATGIPDRFSGSGSGTDFTLTIDRLEPEDSAVYYCQVYGSSPLYTFGQGTKVEMKR
notes: Tested as Fab in E. coli periplasmic extract (VH on human gamma 1 CH1, vector Em351)
B2: RhD304.164B06 (Fab, V domains shown)
VH: QVQLVQSGGGVVQPGRSLRLSCAASGFTFSSYGMHWVRQAPGKGLEWVAVIWYDGSNKYYADSVKGRFTISRDNSKNTLYLQMNSLRAEDTAVYYCARETVVVAAKIRNHYYYAMDVWGQGTTVTVSS
VL: DIQMTQSPSSLSASLGGTVTLTCRSSQFISRYLNWYQQHPGKVPRLLISGASRLQRGVPSRFTGGGSGTDFTLTIKNVQPDDIATYFCQHSYRSGRAFGQGTTVEVKR
notes: as for B1
B3: RhD323.229B07 (Fab, V domains shown)
VH: QVQLVESGGGVVQPGRSLRLSCAASGFTFSSYGMHWVRQAPGKGLEWVAVIWYDGSNKYYADSVKGRFTISRDNSKNTLYLQMNSLRAEDTAVYYCARDWVTRSSNWYRNYYYYGMDVWGQGTTVTVSS
VL: DIQMTQSPSSLSASVGDRVTITCRASQSISSYLNWYQQKPGKAPKLLIYAASTLQSGVPSRFSGSGSGTDFTLTISSLQPEDFATYYCQQYYRTPTWTFGQGTKVEIKR
notes: as for B1
B4: RhD306.223E11 (Fab, V domains shown)
VH: QVQLVESGGGVVQPGRSLRLSCAASGFTFSSYGMHWVRQAPGKGLEWVAVIWYDGSNKYYADSVKGRFTISRDNSKNTLYLQMNTLRDDDTAVYYCAREGTLYSSSWYRRYYYYGMDAWGQGTTVTVSS
VL: EIVLTQSPGTLSLSPGERVTLSCRPSRYIASDYLAWYQLRPGQAPKLLIYGASSRATGIPDRFSGVGSPTDFTLTISRLEPEDFAMYYCHYSGGSPPYPFGQGTRLDIKR
notes: as for B1
B5: RhD162.119G12 (Fab, V domains shown)
VH: QVQLVESGGGLVKPGGSLRLSCAASGFGFSAYSMNWVRQAPGKGLEWVSSITSTTTYYADSVKGRFSISRDNAKSTLYLRMNSLRAEDTAVYYCVREIAFRGSTYSRWSYYFDFWGQGTLVTVSS
VL: DIQLTQSPSSVSASVGDSVTITCRASQAVSGWVAWYQQKPGKAPKLLIFGLSNLEDGVPSRFSGSGSATDFTLTITGLQPEDLATYYCLQANRFPLSFGGGTRVEIKR
notes: as for B1
B6: RhD321.187G08 (Fab, V domains shown)
VH: EVQLVESGGGLVKPGGSLRLSCAASGFTFRSYSMNWVRQAPGKGLEWVSSIGSSSIYTYSADSVKGRFTISRDNAKNSLYLQMNSLRAEDTAVYYCARGEPLNYDYIWGRSRLTIHWGQGTLVTVSS
VL: LNFMLTQPHSVSESPGKTVTISCTRSSGSIASNYMQWYQQRPGSSPTTVIYEDNRRPSGVPDRFSGSIDSSSNSASLTISGLKTEDEADYYCQSYDSNNWVFGGGTKLTVLG
notes: as for B1
B7: RhD305.181E06 (Fab, V domains shown)
VH: QVQLVESGGGVVQPGRSLRLSCAASGFTFSSYGMHWVRQAPGKGLEWVAGIWYDGSNKYYADSVKGRFTISRDNSRNTMYLQMNSLRAEDTAVYYCAREQGGYSSSWYRRYYYYNMDLWGQGTTVTVSS
VL: EIVLTQSPGSLSLSPGERATLSCRASQSVSSSYLAWYQQKPGQAPRLLIYGPSSRATGIPDRFSGSGSGTDFTLTISRLEPEDFAVYYCQHFGNSRGTFGQGTKVEIRR
notes: as for B1
B8: RhD161.119E09 (Fab, V domains shown)
VH: EVQLVESGGGVVQSGRSLRLSCAASGFTFSNNGMHWVRQAPGKGLEWVAFIWYDGSNKYYADSVKGRFTISRDNSKNTLYLQMDGLRAEDSAVYYCAREEIAARLYSRYHYAMDVWGQGTMVTVSS
VL: DIQMTQSPSFLSASVGDRVTITCRASQGIRRYLAWFQQKPGKAPKLLIFSASTLQSGVPSRFSGSGSGTEFTLTISSLQPEDFATYYCQQLSSYPPYTFGQGTKLEIKR
notes: as for B1
B9: RhD324.231F07 (Fab, V domains shown)
VH: EVQLVESGGGLVQPGRSLRLSCVASGFTFSSYWMHWVRQVPGKGLVWVSRINVDGKSTSYADSVKGRFTISRDNAKNTLYLQMNSLRAEDTAVYYCARDPRRFLEWARYGMDVWGRGTTVTVSS
VL: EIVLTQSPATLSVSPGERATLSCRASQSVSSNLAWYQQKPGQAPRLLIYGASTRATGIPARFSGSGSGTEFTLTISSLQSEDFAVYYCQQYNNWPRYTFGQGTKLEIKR
notes: as for B1
B10: RhD317.144A02 (Fab, V domains shown)
VH: QVQLQESGPGLVKPSGTLSLTCAVSGGSIRGSNWWSWVRQPPGKGLEWIGEIHHGGSTNYNPSLKSRVTISVDKSKNRFSLKLSSVTAADTAVYYCARGTSYYDSSGYSFRGLVAFDIWGQGTMVTVSS
VL: EIVLTQSPGTLSLSPGERATLSCRASQSVSSAFLAWYQQKPGQAPRLLIYGASSRATGIPDRFSGSGSGTDFTLTISRLEPEDFAVYYCQQYGSFSITFGQGTRLEIKR
notes: as for B1
B11: RhD300.134H09 (Fab, V domains shown)
VH: QVQLVESGGGVVQPGRSLRLSCAASGFTFSSYGMHWVRQAPGKGLEWVAVIWYDGSNKYYADSVKGRFTISRDNSKNTLYLQMNSLRAEDTAVYYCAREFYTRSGLWSQGYSYYMDVWGKGTTVTVSS
VL: QTVVTQEPSFSVSPGGTVTLTCGLSSGSVSARYYPSWYQQTPGQPPRTLIHSTNTRSSGVPDRFSGSILGNKAALTITGAQADDESDYYCVLYMGSGPWVFGGGTKLTVLG
notes: as for B1
B12: RhD301.160A04 (Fab, V domains shown)
VH: QVQLVESGGGVVQPGRSLRLSCAASGFTFSSYGMHWVRQAPGKGLEWVAVIWFDGGNKYYADSAKGRFTISRDNSKNTLYLQMNSLRAEDTAVYYCARDASVLSGLVTRRLVYYGMDVWGQGTTVTVSS
VL: DVVMTQSPLSLPVTPGEPASISCRSSQSLLHRNGYNYLNWYLQKPGQSPQLLIYLGSNRASGVPDRFSGSGSGTDFTLKISGVEAEDVAFYYCMQGLRTPYTFGQGTKLEIKR
notes: as for B1
B13: RhD307.230E11 (Fab, V domains shown)
VH: QVQLVETGGGVVQPGRSLRLSCAASGFTFSSYGMHWVRQAPGKGLEWVAGIWYDGSNKYYGDSVKGRFTISRDNSRNTLYLHMNSLRADDTAVYYCAREHGGSRSGWYTLRLAYYFDYWGQGTLVTVSS
VL: DIQLTQSPSSLSASVGDRVTITCRASQYINVYLNWYQHKAGRAPKLLIYAASNLQSGVPPRFIGSGSGTDFTLTISSLQSEDFATYYCLQSFTVPRTFGPGTKVDVKR
notes: as for B1
B14: RhD302.160B10 (Fab, V domains shown)
VH: QVQLVESGGGVVQPGRSLRLSCAASGFTFSSYGMHWVRQAPGKGLEWVAFISYDGSNKYYADSVKGRFTISRDNSKNTLSLQMNSLRAEDTAVYYCAKEHGYYRSSWYRNYYYYGMDVWGQGTTVTVSS
VL: DIQLTQSPSSLSASVGDRVTITCRASQSISSYLNWYKQRPGKAPKLLIYAASTLQSGVPSRFSGSGSGTDFALTISSLQAEDFATYYCQQTYSTLWTFGQGTKVEITR
notes: as for B1
B15: RhD303.160B11 (Fab, V domains shown)
VH: B3 VH with G15E, W52S, R98K, W100E, T102G, R103Y, N106S, N110R, G115A
VL: EIVLTQSPGTLSLSPGETATLSCRASQSVSDRDLAWYQQKSGQSPRLLMYGGSTRAPGIPVRFSGSGSGTEFTLTISSLQSEDFAIYYCQHYHDWPPTFGQGTRLEIKR
notes: as for B1
B16: RhD299.127A12 (Fab, V domains shown)
VH: QVQLVESGGGVVQPGRSLRLSCAASGFTFSNFGMHWVRQAPGKGLEWVAVIWYDGSNKDYADSVKGRFTISRDNSKRTLYLQMNSLRAEDTAVYYCARELARGRLRDLDYWGQGTLVTVSS
VL: QAVVTQEPSLTVSPGGTVTLTCASSTGAVTTGYYPNWFQQKPGQAPRALIYSTSKKHSWTPARFSGSLLGGKAALTLSGVQPEDEAEYYCLLFYGGAQLGVFGGGTKLTVLG
notes: as for B1
B17: RhD319.187A11 (Fab, V domains shown)
VH: B3 VH with S31T, Y59N, W100L, V101Q, T102G, R103Y, S104R, N106S, N110M
VL: B16 VL with A2T, T31S, K55N, F93Y, L99R, G100W, K107I
notes: as for B1

Tests used:
[1] = molecular target: T1, Rhesus D antigen (human, UniProt Q02161 2-417); test: Fab screening on RBC (agglutination, FACS)
T1 construct: whole, on cells; Presented on RhD(+) erythrocytes; also called RhD; RhD antigen
T1 sequence (looked up): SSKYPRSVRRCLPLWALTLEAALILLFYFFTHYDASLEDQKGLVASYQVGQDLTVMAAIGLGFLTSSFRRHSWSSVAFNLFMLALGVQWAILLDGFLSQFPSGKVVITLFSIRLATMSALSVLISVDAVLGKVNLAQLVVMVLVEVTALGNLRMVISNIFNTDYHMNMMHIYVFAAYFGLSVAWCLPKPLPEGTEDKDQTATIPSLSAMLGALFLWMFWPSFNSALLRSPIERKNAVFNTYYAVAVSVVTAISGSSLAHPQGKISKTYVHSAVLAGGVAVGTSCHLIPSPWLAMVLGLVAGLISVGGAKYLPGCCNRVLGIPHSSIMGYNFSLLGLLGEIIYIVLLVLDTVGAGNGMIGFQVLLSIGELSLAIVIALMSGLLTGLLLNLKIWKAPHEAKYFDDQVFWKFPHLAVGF
Description: (§1) After each round of panning single colonies were picked for analysis of their binding properties to red blood cells in agglutination assays. Briefly, single colonies were inoculated into 2×YT/100 μg/mL carbenicillin/1% glucose and shaken overnight at 37° C. The next day, DeepWell plates were inoculated using 900 μl 2×YT/100 μg/mL carbenicillin/0.1% glucose and 10 μl overnight culture. The plates were shaken for two hours at 37° C., before Fab induction was performed with addition of 300 μl 2×YT/100 μg/mL carbenicillin/0.25 mM IPTG per well. The plate was shaken overnight at 30° C. The following day, the bacteria were pelleted by centrifugation (3200×g, 4° C., 10 minutes), and re-suspended in 100 μl of 0.8 M NaCl, 0.2×PBS, 8 mM EDTA, and incubated for 15 minutes on ice in order to perform a periplasmic extraction of the Fab fragments. The plate was transferred to −20° C. and finally the suspension was thawed and centrifugation was performed for 10 minutes at 4° C. and 3200×g. The periplasmic extract was used in ELISA assays for analysis of Fab content and in agglutination assays to evaluate the binding potential of the individual Fab fragments.
(§2) The agglutination assay was performed as follows: RhD(−) and RhD(+) RBC were mixed in a 1:1 ratio, and washed 3 times in PBS. After the final wash, the cell mix was re-suspended in 1% BSA in PBS at a density of 10% cells, 50 μl was added to each well of a 96-plate. Periplasmic extracts were added to the wells. As a positive control Rhesogamma P immunoglobulin (Aventis) was used according to the manufacturer's instructions. The plates were incubated for one hour at room temperature with gentle shaking. The cells were washed three times with PBS, before the secondary antibody was added (goat anti-human Fab/FITC conjugate, Sigma F5512) in a 1:100 dilution. The plates were left for agglutination for one hour at room temperature without shaking. Fab fragments positive in the agglutination assay was determined by visual inspection, and recorded by taking a picture. Quantization of the binding activity of the Fab fragments was performed by FACS analysis of the agglutination samples.

[2] = molecular target: T1, Rhesus D antigen; test: agglutination assay, Fab periplasmic extract on RhD(+)/RhD(-) RBC mix
Description: as §1, §2

Binder | binding result [1] | binding result [2]
B1 | binds | 
B2 | binds | 
B3 | binds | 
B4 | binds | 
B5 | binds | 
B6 | binds | 
B7 | binds | 
B8 |  | binds
B9 | binds | 
B10 | binds | 
B11 | binds | 
B12 | binds | 
B13 | binds | 
B14 | binds | 
B15 | binds | 
B16 | binds | 
B17 | binds | 
